Source: patent US20240092854A1 (WASHINGTON UNIVERSITY, published 2024)

Target: T1, murine NKG2D on NK cells / splenocytes (mouse, UniProt O54709 1-232)
T1 construct: whole, on cells; also called NKG2D receptor
T1 sequence: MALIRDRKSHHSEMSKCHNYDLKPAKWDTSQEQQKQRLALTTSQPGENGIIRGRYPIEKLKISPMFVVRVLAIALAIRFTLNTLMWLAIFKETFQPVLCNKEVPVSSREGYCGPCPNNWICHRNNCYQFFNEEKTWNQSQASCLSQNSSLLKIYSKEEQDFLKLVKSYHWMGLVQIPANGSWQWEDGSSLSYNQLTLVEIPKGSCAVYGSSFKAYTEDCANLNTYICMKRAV
Test: flow cytometry, fluorescently labeled construct on bulk splenocytes at 37° C.

B1: OMCP-mutIL-2 (R38A, F42K, C125S IL2-OMCP construct) (other)
chain: HKLAFNFNLEINGSDTHSTVDVYLDDSQIITFDGKDIRPTIPFMIGDEIFLPFYKNVFSEFFSLFRRVPTSTPYEDLTYFYECDYTDNKSTFDQFYLYNGEEYTVKTQEATNKNMWLTTSEFRLKKWFDGEDCIMHLRSLVRKMEDSKRNTGGTGSSGSSDYKDDDDKHHHHHHHHGSSGSSAPTSSSTKKTQLQLEHLLLDLQMILNGINNYKNPKLTAMLTKKFYMPKKATELKHLQCLEEELKPLEEVLNLAQSKNFHLRPRDLISNINVIVLELKGSETTFMCEYADETATIVEFLNRWITFSQSIISTLT
notes: also called OMCP-mutant IL-2; OMCP-IL2 construct
B1: binds.
